Patent publication US20240228645A1
Each block holds one substance with its values, some of them ahead of it.

Experiments:
[1] = target: human BAFF-R expressed on cells (hBAFF-R-CHO isogenic CHO cells; BAFF-R+ cancer cells) (human) (UniProt Q96RJ3); assay: cell-based blocking assay; MFI of BAFF-biotin bound to CHO cells expressing human BAFF-R in the presence of the control antibody
PSR [2] = assay: PSR assay: antibody on Protein A coated beads, biotinylated PSR, SA-PE, flow cytometry; +PSR panel, other quadrants Q1 72.8, Q3 7.72E-3, Q4 0.29; without PSR Q2 0
PSR [3] = assay: PSR assay: antibody on Protein A coated beads, biotinylated PSR, SA-PE, flow cytometry; +PSR panel, other quadrants Q1 98.8, Q3 0, Q4 0.048
[4] = target: hBAFF-R-hFc-His fusion protein (human) (UniProt Q96RJ3); assay: yeast surface display flow cytometry; hBAFF-R-hFc-His (concentration not given)
[5] = target: hBAFF-R-hFc-His fusion protein (human) (UniProt Q96RJ3); assay: yeast surface display flow cytometry; hBAFF-R-hFc-His (concentration not given); other quadrants Q1 0.35, Q3 13.0, Q4 28.5
[6] = target: hBAFF-R-hFc-His fusion protein (human) (UniProt Q96RJ3); assay: yeast surface display flow cytometry; hBAFF-R-hFc-His (concentration not given); other quadrants Q1 0.34, Q3 5.47, Q4 34.4
[7] = target: hBAFF-R-hFc-His fusion protein (human) (UniProt Q96RJ3); assay: yeast surface display flow cytometry, after challenge: 100 pM hBAFFR-Fc biotin for 1 hr at RT, then 1 mM (so in the source); paragraph 270 says 1 uM) nonbiotinylated hBAFFR-Fc, t = 120 min; other quadrants Q1 64.5, Q3 0.050, Q4 21.0
[8] = target: hBAFF-R-hFc-His fusion protein (human) (UniProt Q96RJ3); assay: yeast surface display flow cytometry, before challenge: 100 pM hBAFFR-Fc biotin for 1 hr at RT; other quadrants Q1 44.1, Q3 9.77E-3, Q4 14.6
[9] = target: hBAFF-R-hFc-His fusion protein (human) (UniProt Q96RJ3); assay: yeast surface display flow cytometry; hBAFF-R-hFc-His (concentration not given); other quadrants Q1 0.17, Q3 10.5, Q4 22.3
[10] = target: hBAFF-R-hFc-His fusion protein (human) (UniProt Q96RJ3); assay: yeast surface display flow cytometry, after challenge: 100 pM hBAFFR-Fc biotin, then 1 mM (so in the source); paragraph 270 says 1 uM) nonbiotinylated hBAFFR-Fc, t = 120 min

Minimum (MFI) [1]: 68000 MFI
Substance: Human IgG1k (antibody)

Q2, percent of beads positive for FITC and for PSR binding (PE), +PSR (PSR [2]): 27.1
Substance: Ixekuzumab (antibody)

Q2, percent of beads positive for FITC and for PSR binding (PE), +PSR (PSR [3]): 1.18
Substance: Trastuzumab (antibody)

Gated lane, percent of events in the drawn gate [4]: 0.3
Gated, percent of events in the drawn gate [4]: 0.72
Q2, percent of events positive for scFv expression and for antigen binding [5]: 58.2
Q2, percent of events positive for scFv expression and for antigen binding [6]: 59.5
Q2, percent of events positive for scFv expression and for antigen binding, after challenge [7]: 14.4
Q2, percent of events positive for scFv expression and for antigen binding, before challenge [8]: 41.3
Q2, percent of events positive for scFv expression and for antigen binding [9]: 67
Iana (drawn gate), percent of events, after challenge [10]: 0.13
Substance: ianalumab-based scFv benchmark control displayed on yeast
